Experimental data published in paper doi:10.1101/2024.03.18.585568 (bioRxiv, 2024).

What was measured:
[1] = biological target: T1, apoGAD65 (glutamate decarboxylase GAD65, residues 84-585, purified without added PLP) (human, UniProt Q05329); test: HDX-MS
[2] = biological target: T1, apoGAD65 (glutamate decarboxylase …); test: SPR

T1 sequence (Q05329 84-585): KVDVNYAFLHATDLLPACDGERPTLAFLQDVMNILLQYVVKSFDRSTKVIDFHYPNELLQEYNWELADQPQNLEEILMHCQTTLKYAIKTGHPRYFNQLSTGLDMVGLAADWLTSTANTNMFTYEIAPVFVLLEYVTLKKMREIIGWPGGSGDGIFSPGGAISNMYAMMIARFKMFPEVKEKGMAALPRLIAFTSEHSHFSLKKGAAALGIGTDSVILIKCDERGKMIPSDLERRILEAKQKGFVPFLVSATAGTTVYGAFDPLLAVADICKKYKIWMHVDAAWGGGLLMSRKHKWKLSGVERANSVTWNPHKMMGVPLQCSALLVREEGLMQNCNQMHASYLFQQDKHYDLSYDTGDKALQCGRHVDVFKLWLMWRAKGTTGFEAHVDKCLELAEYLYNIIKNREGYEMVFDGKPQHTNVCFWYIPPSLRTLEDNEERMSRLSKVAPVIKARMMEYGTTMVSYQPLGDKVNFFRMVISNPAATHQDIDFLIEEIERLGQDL

| binding result [1] | binding result [2] | Binder |
| --- | --- | --- |
| binds |  | b96.11 Fab (recombinant Fab based on the human APS-2-associated autoantibody b96.11) (Fab, V domains shown) VH: EVQLVESGGGLVQPGRSLRLSCSASGFTFGDYAMSWFRLAPGKGLEWVGLIKSRAIDGTPQYAASVKGRFTISRDDSNSIAYLQMNSLTTEDTAIYYCARDFYDFWNEFSHRTFDFWGQGTLVTVSS VL: QSALTQPASASGSPGQSVTITCTGSSSDVGGYKYVSWYQHHPGKAPKLMIYEVSKRPSGVPDRFSGSKSGNMASLTVSGLQAEDEADYYCSSYAGSYNFYVFGNGTKVTVL |
|  | binds | b96.11 IgG (purified monoclonal b96.11 IgG antibody) (antibody, V domains shown) VH: EVQLVESGGGLVQPGRSLRLSCSASGFTFGDYAMSWFRLAPGKGLEWVGLIKSRAIDGTPQYAASVKGRFTISRDDSNSIAYLQMNSLTTEDTAIYYCARDFYDFWNEFSHRTFDFWGQGTLVTVSS VL: QSALTQPASASGSPGQSVTITCTGSSSDVGGYKYVSWYQHHPGKAPKLMIYEVSKRPSGVPDRFSGSKSGNMASLTVSGLQAEDEADYYCSSYAGSYNFYVFGNGTKVTVL |
